For one substance, EC50 results are on record in patent US20240100180A1.

This test concerns the target CLDN18.2 on lipoparticles. As to the kind of experiment: ELISA on CLDN18.2-lipoparticles. Background: In an ELISA, binding on a coated surface is turned into a signal by an enzyme label.

In turn, IMAB362 (antibody) returned an EC50 of 0.0515 µg/mL.

One may read the EC50 as the concentration that produces a half-maximal response. Read a low EC50 as an effect from little substance.
